For assay [1], the target named is endogenous TTC5 of rabbit reticulocyte lysate (rabbit (endogenous in rabbit reticulocyte lysate)) (UniProt G1SNQ6). Description: cross-linking; competition: porcine brain tubulin at the indicated concentrations added to isolated β-tubulin 94-mer RNCs (Bpa at position 7) carrying endogenous TTC5, 10 min on ice in PSB, then UV; autoradiography, anti-TTC5 immunoprecipitation.

For assay [2], the target named is recombinant TTC5 labelled with Oregon Green 488 maleimide (human) (UniProt Q8N0Z6). Description: MST; 50 nM Oregon Green 488-labelled TTC5 with various porcine tubulin concentrations in 250 mM NaCl, 1 mM TCEP, 20 mM HEPES pH 7.4; duplicates.

One may read the Ki as the dissociation constant of the complex between target and ligand, obtained from inhibition or displacement. A high value points to a looser hold on the target. Broadly, the Kd is a measure of binding affinity in units of concentration.

Sequence of recombinant TTC5 labelled with Oregon Green 488 maleimide (human) (Q8N0Z6 whole entry): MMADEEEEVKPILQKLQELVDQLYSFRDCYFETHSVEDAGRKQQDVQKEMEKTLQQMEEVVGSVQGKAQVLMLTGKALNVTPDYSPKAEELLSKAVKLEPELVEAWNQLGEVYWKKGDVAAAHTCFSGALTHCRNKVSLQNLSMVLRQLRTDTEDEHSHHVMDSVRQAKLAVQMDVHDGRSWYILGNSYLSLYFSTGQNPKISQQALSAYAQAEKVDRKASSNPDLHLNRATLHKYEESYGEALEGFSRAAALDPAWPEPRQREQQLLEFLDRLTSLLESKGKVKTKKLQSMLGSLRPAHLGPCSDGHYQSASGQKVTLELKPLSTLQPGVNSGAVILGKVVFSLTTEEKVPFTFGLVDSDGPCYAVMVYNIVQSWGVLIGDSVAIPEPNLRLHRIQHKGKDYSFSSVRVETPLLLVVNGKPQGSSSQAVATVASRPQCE
Sequence of endogenous TTC5 of rabbit reticulocyte lysate (rabbit (endogenous in rabbit reticulocyte lysate)) (G1SNQ6 entry or part of it): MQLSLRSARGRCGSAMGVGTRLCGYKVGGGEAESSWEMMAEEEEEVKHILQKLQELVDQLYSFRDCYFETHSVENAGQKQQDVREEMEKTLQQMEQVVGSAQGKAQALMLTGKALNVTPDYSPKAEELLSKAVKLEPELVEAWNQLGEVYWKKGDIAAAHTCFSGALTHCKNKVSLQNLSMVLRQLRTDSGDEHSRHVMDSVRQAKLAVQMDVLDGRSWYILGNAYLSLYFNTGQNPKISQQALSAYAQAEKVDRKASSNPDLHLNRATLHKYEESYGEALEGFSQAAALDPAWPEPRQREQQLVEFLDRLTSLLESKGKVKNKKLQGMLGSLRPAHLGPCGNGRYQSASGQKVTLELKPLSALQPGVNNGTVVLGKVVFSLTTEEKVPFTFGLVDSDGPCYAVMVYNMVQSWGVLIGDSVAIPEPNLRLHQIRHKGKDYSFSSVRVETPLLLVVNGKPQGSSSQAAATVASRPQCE

For the substance “porcine brain αβ-tubulins (from UniProt P02550 1-451; Q767L7 1-444) (complex)”, the Ki in assay [1] is 500 nM. Besides, in assay [2], the Kd was found to be 500 nM.
